Laboratory results taken from PMC3468502.

Molecular target: BCL11A (Homo sapiens) (UniProt Q9H165)
Experiment: EMSA supershift
Settings: with NF-Y, EMSA with nuclear extracts, 100x molar excess competitors, buffer and temperature not given (refs 25-27)

Chain of UniProt Q9H165 (Q9H165 whole entry): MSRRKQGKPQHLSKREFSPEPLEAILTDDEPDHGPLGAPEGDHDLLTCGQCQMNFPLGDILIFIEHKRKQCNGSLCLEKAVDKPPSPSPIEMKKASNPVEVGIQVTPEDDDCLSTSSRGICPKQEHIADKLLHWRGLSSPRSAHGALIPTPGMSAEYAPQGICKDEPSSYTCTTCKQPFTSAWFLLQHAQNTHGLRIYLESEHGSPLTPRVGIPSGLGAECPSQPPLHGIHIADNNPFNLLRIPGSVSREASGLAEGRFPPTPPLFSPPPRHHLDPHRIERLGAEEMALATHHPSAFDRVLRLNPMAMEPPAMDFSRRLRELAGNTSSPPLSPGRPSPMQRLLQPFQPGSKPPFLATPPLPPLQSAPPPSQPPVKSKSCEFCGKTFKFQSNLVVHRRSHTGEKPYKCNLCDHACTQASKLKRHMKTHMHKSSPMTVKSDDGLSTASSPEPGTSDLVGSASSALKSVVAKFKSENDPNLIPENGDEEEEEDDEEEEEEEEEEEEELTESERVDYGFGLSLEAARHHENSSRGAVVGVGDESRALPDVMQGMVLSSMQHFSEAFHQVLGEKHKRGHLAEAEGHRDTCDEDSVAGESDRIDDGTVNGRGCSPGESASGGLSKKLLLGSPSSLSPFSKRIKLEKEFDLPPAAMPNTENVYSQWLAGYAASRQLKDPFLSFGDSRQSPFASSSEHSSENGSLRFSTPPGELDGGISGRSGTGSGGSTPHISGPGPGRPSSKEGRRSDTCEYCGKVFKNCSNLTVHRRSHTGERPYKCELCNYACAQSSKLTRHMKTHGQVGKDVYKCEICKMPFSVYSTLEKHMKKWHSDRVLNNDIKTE

Sequence: GCCTTGCCTTGACCAATAGCCTTGACAAGGCAAACTTGACCAATAGTCTTAGAGTATCCAGTGAGGCCAGGGGCCGGCGGCTGGCTAGGGATGA (double strand) [Wt proximal gamma-globin promoter probe (94 bases)]
- binding signal (% of NF-Y band supershifted) (D14 extract): 40
- binding signal (% of NF-Y band supershifted) (K562 extract): 30
- binding signal (% of NF-Y band supershifted) (fetal liver extract): 30
